{
  "source": "patent US20070082400A1",
  "biological_target": "human CD40L protein translated from transfected CD40L mRNA (pCR2.1 CD40L WT, >100 nucleotide polyA tail) (human) (UniProt P29965)",
  "sequence (P29965 whole entry)": "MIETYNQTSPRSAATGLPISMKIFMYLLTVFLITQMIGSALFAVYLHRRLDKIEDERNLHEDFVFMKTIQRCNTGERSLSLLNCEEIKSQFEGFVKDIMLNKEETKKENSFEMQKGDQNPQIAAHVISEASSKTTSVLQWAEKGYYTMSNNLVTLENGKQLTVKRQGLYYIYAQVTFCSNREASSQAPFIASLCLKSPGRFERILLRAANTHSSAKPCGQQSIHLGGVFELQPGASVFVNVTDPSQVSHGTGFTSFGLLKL",
  "assay": "cell-based or functional assay",
  "data": [
    {"substance": "blocking CD40L monoclonal antibody 24-31 (eBioscience)", "values": [
      {"measurement": "IL-12p70 (pg/ml), 'Cocktail' matured and reactivated DCs co-cultured with CD40L mRNA-transfected HeLa cells plus IFN-gamma plus 24-31", "value": 2.5, "unit": "pg/mL"},
      {"measurement": "IL-12p70 release by CD40L mRNA-transfected DCs cultured with IFN-gamma and 10 or 50 ug/ml blocking anti-CD40L antibody", "value": 50, "unit": "%"}
    ]}
  ]
}
